Assay results taken from article PMC8724787.
Read-outs that look alike come from different tables or passages of the source.

B1: C10 intact bivalent IgG1 (human monoclonal antibody EDE1 C10) (protein)
chain 1: EVQLVESGAEVKKPGASVKVSCKASGYTFTSYAMHWVRQAPGQRLEWMGWINAGNGNTKYSQKFQDRVTITRDTSASTAYMELSSLRSEDTAIYYCARDKVDDYGDYWFPTLWYFDYWGQGTLVTVSS
chain 2: QSALTQPASVSGSPGQSITISCTGTSSDVGGFNYVSWFQQHPGKAPKLMLYDVTSRPSGVSSRFSGSKSGNTASLTISGLQAEDEADYYCSSHTSRGTWVFGGGTKLTVL
B2: C10 monovalent antigen binding fragment (Fab) (protein)
chain 1: B1 chain 1
chain 2: B1 chain 2

Target: DENV1 strain Hawaii envelope (E) protein on virions (Dengue virus 1 (strain Hawaii))
Assay: ELISA; apparent

Binder | Kd [nM] | Kd (Fab) [nM]
B1 | 2.6 | 
B2 |  | 9.85
